Laboratory results: publication PMC1914068

Biological target: LexA-TAP-Vpr (yeast two-hybrid bait) (HIV-1) (UniProt P05928)
Assay: two-hybrid; LexA baits (pEG202) and B42 preys (pJG4-5) in S. cerevisiae EGY48; β-galactosidase activity by the o-nitrophenyl-β-D-galactopyranoside method

Vpr as yeast two-hybrid fusion (LexA-Vpr bait and B42-Vpr prey) (from UniProt P05928 1-96) (natural protein)
fold weaker than dimerization of wild-type Vpr (β-galactosidase activity): 3 fold
